Like-named read-outs stand apart in the source and are kept apart here. One block for each binder: values may come before it.
Tests used:
Test in all cases: ITC
[1] = molecular target: T1, Ankyrin-G 24 ANK repeats (residues 38-855) (UniProt O70511 38-855)
T1 chain: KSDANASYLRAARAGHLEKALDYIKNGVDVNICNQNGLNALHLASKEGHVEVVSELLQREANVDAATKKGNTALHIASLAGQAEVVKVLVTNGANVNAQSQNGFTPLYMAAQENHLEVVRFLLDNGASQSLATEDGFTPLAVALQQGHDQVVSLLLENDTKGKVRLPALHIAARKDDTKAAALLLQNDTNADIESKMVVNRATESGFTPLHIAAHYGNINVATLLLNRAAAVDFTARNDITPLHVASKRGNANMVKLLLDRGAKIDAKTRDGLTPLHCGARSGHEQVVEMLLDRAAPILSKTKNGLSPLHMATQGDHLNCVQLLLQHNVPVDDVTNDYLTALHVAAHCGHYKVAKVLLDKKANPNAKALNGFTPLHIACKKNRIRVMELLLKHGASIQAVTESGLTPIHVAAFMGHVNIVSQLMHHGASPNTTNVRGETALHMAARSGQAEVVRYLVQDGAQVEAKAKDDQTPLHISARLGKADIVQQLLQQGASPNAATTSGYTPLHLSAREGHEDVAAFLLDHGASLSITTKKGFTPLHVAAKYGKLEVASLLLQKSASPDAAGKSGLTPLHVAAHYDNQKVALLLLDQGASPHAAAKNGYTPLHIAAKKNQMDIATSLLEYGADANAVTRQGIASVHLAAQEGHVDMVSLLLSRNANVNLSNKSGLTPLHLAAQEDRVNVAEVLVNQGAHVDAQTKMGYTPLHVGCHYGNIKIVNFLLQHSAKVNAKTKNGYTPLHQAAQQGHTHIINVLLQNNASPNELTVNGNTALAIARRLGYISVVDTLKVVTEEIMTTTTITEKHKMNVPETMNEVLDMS

[2] = molecular target: E-cadherin CTD site-2 to A (mouse, UniProt P09803 734-884, Y829A | Y837A)
[3] = molecular target: E-cadherin CTD site-1, 3 to A (mouse, UniProt P09803 734-884, Y755A | Y756A | Y757A | Y861A | Y863A | W867A)
[4] = molecular target: E-cadherin CTD site-2, 3 to A (mouse, UniProt P09803 734-884, Y829A | Y837A | Y861A | Y863A | W867A)
[5] = molecular target: E-cadherin CTD site-1, 2, 3 to A (a total of 8 aromatic residue substitutions) (mouse, UniProt P09803 734-884, Y755A | Y756A | Y757A | Y829A | Y837A | Y861A | Y863A | W867A)
[6] = molecular target: E-cadherin CTD site-3 to A (mouse, UniProt P09803 734-884, Y861A | Y863A | W867A)
[7] = molecular target: E-cadherin CTD site-1 to A (mouse, UniProt P09803 734-884, Y755A | Y756A | Y757A)
[8] = molecular target: E-cadherin CTD site-1, 2 to A (mouse, UniProt P09803 734-884, Y755A | Y756A | Y757A | Y829A | Y837A)
[9] = molecular target: T2, AnkG R6-24 (Rattus norvegicus)
T2 chain: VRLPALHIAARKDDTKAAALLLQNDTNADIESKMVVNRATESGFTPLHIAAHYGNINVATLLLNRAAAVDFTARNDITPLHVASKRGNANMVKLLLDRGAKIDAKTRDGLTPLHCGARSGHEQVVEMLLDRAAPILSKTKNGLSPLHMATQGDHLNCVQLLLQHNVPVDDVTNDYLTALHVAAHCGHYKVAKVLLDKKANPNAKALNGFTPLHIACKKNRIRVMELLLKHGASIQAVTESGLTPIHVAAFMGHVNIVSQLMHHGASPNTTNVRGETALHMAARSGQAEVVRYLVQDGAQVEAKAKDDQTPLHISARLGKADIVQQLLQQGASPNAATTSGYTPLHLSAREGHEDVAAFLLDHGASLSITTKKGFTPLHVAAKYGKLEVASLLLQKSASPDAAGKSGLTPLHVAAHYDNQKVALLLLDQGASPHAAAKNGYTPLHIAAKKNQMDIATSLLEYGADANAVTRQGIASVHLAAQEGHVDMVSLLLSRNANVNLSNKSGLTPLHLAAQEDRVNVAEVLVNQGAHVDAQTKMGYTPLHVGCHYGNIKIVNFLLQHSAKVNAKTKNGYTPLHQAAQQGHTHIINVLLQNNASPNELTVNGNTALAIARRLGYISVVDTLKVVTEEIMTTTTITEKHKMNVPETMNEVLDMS

[10] = molecular target: T3, Ankyrin-G ANK repeats 8-14 (UniProt O70511 275-500)
T3 chain: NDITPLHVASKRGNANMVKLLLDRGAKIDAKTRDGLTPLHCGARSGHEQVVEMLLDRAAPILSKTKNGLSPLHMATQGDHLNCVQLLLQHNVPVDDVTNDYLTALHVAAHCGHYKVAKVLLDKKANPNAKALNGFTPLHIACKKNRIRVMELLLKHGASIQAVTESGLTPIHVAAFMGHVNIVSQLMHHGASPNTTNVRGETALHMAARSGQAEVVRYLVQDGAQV

[11] = molecular target: T1, Ankyrin-G 24 ANK repeats (residues …)

Kd [1]: 9.5 µM
Binder: PYDSLLVFDAEGSGS (domain or fragment) [E-cadherin site-2 Y837A]

Kd [2]: 2.8 µM
Kd [3]: > 30 µM
Kd [4]: 1.8 µM
Kd [5]: > 50 µM
Kd [6]: 2.9 µM
Kd [7]: > 50 µM
Kd [8]: > 70 µM
B1: p120 catenin 324-938 (domain or fragment)
chain: MIGEEVPPDQYYWAPLAQHERGSLASLDSLRKGMPPPSNWRQPELPEVIAMLGFRLDAVKSNAAAYLQHLCYRNDKVKTDVRKLKGIPILVGLLDHPKKEVHLGACGALKNISFGRDQDNKIAIKNCDGVPALVRLLRKARDMDLTEVITGTLWNLSSHDSIKMEIVDHALHALTDEVIIPHSGWEREPNEDCKPRHIEWESVLTNTAGCLRNVSSERSEARRKLRECDGLVDALIFIVQAEIGQKDSDSKLVENCVCLLRNLSYQVHREIPQAERYQEALPTVANSTGPHAASCFGAKKGKDEWFSRGKKPTEDPANDTVDFPKRTSPARGYELLFQPEVVRIYISLLKESKTPAILEASAGAIQNLCAGRWTYGRYIRSALRQEKALSAIAELLTSEHERVVKAASGALRNLAVDARNKELIGKHAIPNLVKNLPGGQQNSSWNFSEDTVVSILNTINEVIAENLEAAKKLRETQGIEKLVLINKSGNRSEKEVRAAALVLQTIWGYKELRKPLEKEGWKKSDFQVNLNNASRSQSSHSYDDSTLPLIDRNQKSDKKPDREEIPMSNMGSNTKSLDNNYSTLNERGDHNRTLDRSGDLGDMEPLKGAPLMQKI

Kd [1]: 1.7 µM
Binder: PADSLLVFDYEGSGS (domain or fragment) [E-cadherin site-2 Y829A]

Kd [1]: 2.2 µM
Binder: YAYDEEGGGEEDQDFD (domain or fragment) [E-cadherin site-1 Y756A]

Kd [1]: 3.2 µM
Binder: ESDQDQDADYLNEWGN (domain or fragment) [E-cadherin site-3 Y861A]

Kd [1]: 2.2 µM
Binder: YYADEEGGGEEDQDFD (domain or fragment) [E-cadherin site-1 Y757A]

Kd [1]: 3.9 µM
Binder: ESDQDQDYDALNEWGN (domain or fragment) [E-cadherin site-3 Y863A]

Kd [2]: 4.8 µM
Kd [3]: 0.098 µM
Kd [4]: 1.4 µM
Kd [5]: 8.1 µM
Kd [6]: 0.11 µM
Kd [7]: 0.056 µM
Kd [8]: 3.6 µM
B5: full-length β-catenin 1-781 (natural protein)
chain: MATQADLMELDMAMEPDRKAAVSHWQQQSYLDSGIHSGATTTAPSLSGKGNPEEEDVDTSQVLYEWEQGFSQSFTQEQVADIDGQYAMTRAQRVRAAMFPETLDEGMQIPSTQFDAAHPTNVQRLAEPSQMLKHAVVNLINYQDDAELATRAIPELTKLLNDEDQVVVNKAAVMVHQLSKKEASRHAIMRSPQMVSAIVRTMQNTNDVETARCTAGTLHNLSHHREGLLAIFKSGGIPALVKMLGSPVDSVLFYAITTLHNLLLHQEGAKMAVRLAGGLQKMVALLNKTNVKFLAITTDCLQILAYGNQESKLIILASGGPQALVNIMRTYTYEKLLWTTSRVLKVLSVCSSNKPAIVEAGGMQALGLHLTDPSQRLVQNCLWTLRNLSDAATKQEGMEGLLGTLVQLLGSDDINVVTCAAGILSNLTCNNYKNKMMVCQVGGIEALVRTVLRAGDREDITEPAICALRHLTSRHQEAEMAQNAVRLHYGLPVVVKLLHPPSHWPLIKATVGLIRNLALCPANHAPLREQGAIPRLVQLLVRAHQDTQRRTSMGGTQQQFVEGVRMEEIVEGCTGALHILARDVHNRIVIRGLNTIPLFVQLLYSPIENIQRVAAGVLCELAQDKEAAEAIEAEGATAPLTELLHSRNEGVATYAAAVLFRMSEDKPQDYKKRLSVELTSSLFRTEPMAWNETADLGLDIGAQGEALGYRQDDPSYRSFHSGGYGQDALGMDPMMEHEMGGHHPGADYPVDGLPDLGHAQDLMDGLPPGDSNQLAWFDTDL

Kd [1]: 3.9 µM
Binder: ESDQDQDYDYLNEAGN (domain or fragment) [E-cadherin site-3 W867A]

Kd [1]: 5 µM
Binder: AYYDEEGGGEEDQDFD (domain or fragment) [E-cadherin site-1 Y755A]

Continued, binder first:

Binder: AAYDEEGGGEEDQDFD [E-cadherin 755-770 Y755A,Y756A]
Kd [1]: 4.2 µM

Binder: YAADEEGGGEEDQDFD [E-cadherin 755-770 Y756A,Y757A]
Kd [1]: 7.1 µM

Binder: AYADEEGGGEEDQDFD [E-cadherin 755-770 Y755A,Y757A]
Kd [1]: 4.1 µM

Binder: ESDQDQDADALNEWGN [E-cadherin 854-869 Y861A,Y863A]
Kd [1]: 5.8 µM

Binder: RDNVYYYDEEGGGEEDQDFDLSQLH (domain or fragment) [E-cadherin 751-775 (site-1)]
Kd [9]: 1.8 µM
Kd [10]: 8.9 µM

B2: E-cadherin 734-775 (domain or fragment)
chain: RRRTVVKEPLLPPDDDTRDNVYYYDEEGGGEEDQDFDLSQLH
Kd [11]: 1.5 µM

B3: E-cadherin 828-869 (containing both site-2 and site-3) (domain or fragment)
chain: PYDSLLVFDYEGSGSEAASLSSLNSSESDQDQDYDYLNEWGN
Kd [9]: 1 µM
Kd [10]: 7.1 µM

B4: E-cadherin 734-838 (protein)
chain: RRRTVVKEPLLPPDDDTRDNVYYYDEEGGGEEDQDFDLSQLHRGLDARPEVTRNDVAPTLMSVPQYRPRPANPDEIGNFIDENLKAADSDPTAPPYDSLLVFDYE
Kd [11]: 1.1 µM

B6: E-cadherin 776-884 (domain or fragment)
chain: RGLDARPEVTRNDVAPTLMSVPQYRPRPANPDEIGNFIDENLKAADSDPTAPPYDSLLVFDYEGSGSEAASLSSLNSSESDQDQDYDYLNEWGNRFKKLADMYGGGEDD
Kd [11]: 0.8 µM
